According to article PMC3354962 (Advances in bioscience and biotechnology (Print), 2011):

Legend:
proteases = experiment: Protease digestion, summary over the panel of proteases; format: in vitro ADME; details: of the 9 proteases tested; 1 µU enzyme, 1 hr, 37°C, SDS-PAGE
Trypsin = experiment: Protease digestion, SDS-PAGE: trypsin; format: in vitro ADME; details: 1 µU trypsin, 1 hr, 37°C, Coomassie, Figure 1

Substance | Number of proteases the material was resistant to (proteases) | Appearance of peptide bands on SDS-PAGE after digestion by trypsin (Trypsin)
Griffithsin [GRFT] | 8 | –
PSC-RANTES | – | reduced intensity or density rather than disappearing
